Measured values taken from patent publication US20250129136A1.

B1: mDsg3(EC13)-mFc (Fc fusion)
chain: EWVKFAKPCREREDNSRRNPIAKITSDFQKNQKITYRISGVGIDQPPFGIFVVDPNNGDINITAIVDREETPSFLITCRALNALGQDVERPLILTVKILDVNDNPPIFSQTIFKGEIEENSASNSLVMILNATDADEPNHMNSKIAFKIVSQEPAGMSMFLISRNTGEVRTLTSSLDREQISSYHLVVSGADNDGTGLSTQCECSIKIKDVNDNFPVLRESQYSARIEENTLNAELLRFQVTDWDEEYTDNWLAVYFFTSGNEGNWFEIETDPRTNEGILKVVKALDYEQVQSMQFSIAVRNKAEFHQSVISQYRVQSTPVTIQVIDVREGISGGGGSGGSEPRGPTIKPCPPCKCPAPNLLGGPSVFIFPPKIKDVLMISLSPIVTCVVVDVSEDDPDVQISWFVNNVEVHTAQTQTHREDYNSTLRVVSALPIQHQDWMSGKEFKCKVNNKDLPAPIERTISKPKGSVRAPQVYVLPPPEEEMTKKQVTLTCMVTDFMPEDIYVEWTNNGKTELNYKNTEPVLDSDGSYFMYSKLRVEKKNWVERNSYSCSVVHEGLHNHHTTKSFSRTPGKGGGGSGGGGSDYKDDDDKLPETGGHHHHHH
modifications: Alexa Fluor 647 installed site-specifically at the C-terminus by sortase (Gly3-Alexa647 on the LPETG motif) for the flow cytometry stainings

Assays:
hPBMC = assay: flow cytometry, percent of stained hPBMC against the concentration of Alexa647-labeled hDsg3-hFc
[1] = target: Fcγ receptor of mouse macrophages (RAW264.7 cells) (mouse); assay: flow cytometry dot plot of RAW264.7 macrophage cells, 10 nM mDsg3-IgG2a-Alexa647; the same quadrant at 0 nM prints 1.28
[2] = target: Fcγ receptor of mouse macrophages (RAW264.7 cells) (mouse); assay: flow cytometry on Raw macrophage cells, titration of labeled protein
[3] = target: F779 patient-derived anti-Dsg3 antibody on Nalm-6 cells; assay: flow cytometry, F779 cells incubated with varying concentrations of mDsg3-mFc (IgG2a), percent of stained F779 cells [top]
[4] = target: F779 patient-derived anti-Dsg3 antibody on Nalm-6 cells; assay: flow cytometry on F779 cells, titration of Alexa647-labeled protein
[5] = target: AK23 antibody (anti-mouse Dsg3, from AK23 hybridoma); assay: cell-based or functional assay
[6] = target: F779 patient-derived anti-Dsg3 antibody on Nalm-6 cells; assay: cell-based or functional assay
[7] = target: PVB28 patient-derived anti-Dsg3 antibody on Nalm-6 cells; assay: cell-based or functional assay

| Molecule | EC50 (hPBMC) | number in the Alexa647-positive upper right quadrant at 10 nM (percent of cells) [1] | EC50 [2] | EC50 [3] | EC50 [4] | killing of AK23 target cells co-cultured with RAW264.7 macrophages, 10 nM construct, 24 hours [5] | killing of F779 target cells co-cultured with RAW264.7 macrophages, 10 nM construct, 24 hours [6] | killing of F779 target cells co-cultured with RAW264.7 macrophages, 10 nM construct, 48 hours [6] | killing of F779 target cells with RAW264.7 macrophages (Effector:Target 10:1), 1 nM construct, 24 hours [6] | killing of F779 target cells with RAW264.7 macrophages (Effector:Target 10:1), 1 nM construct, 48 hours [6] | killing of targeted cells with RAW264.7 macrophages at 10 and 100 nM construct [6] | killing of targeted cells with RAW264.7 macrophages at 10 and 100 nM construct [7] |
| --- | --- | --- | --- | --- | --- | --- | --- | --- | --- | --- | --- | --- |
| hDsg3(EC13)-hFc (Fc fusion) | 1.7 nM |  |  |  |  |  |  |  |  |  |  |  |
| B1 |  | 98.6% | 2.3 nM | 2.6 nM | 2.3 nM | 60% | 65% | 94% | 60% | 80% | 90% | 90% |
